Measurements as given in the supplement of paper PMC6757056.
± gives the standard deviation of the averaged measurements.

B1: library; a variant is named by its letters at N, in order (parent)
chain: GCUGUCACCGGUGCUUGGUACGUUAUAUUCAGCCGGUCUGAUGAGUCUNNNNNNAGACGAAACAGC

Columns and labels:
(6R,S)-folinic acid [1] = variants of: B1; test: normalized RNA/DNA level without ligand (relative to sTRSVctl = 100) (log10 (% of sTRSVctl)); HEK293T overexpressing SLC46A1; higher = less ribozyme self-cleavage, higher mRNA level; settings: without (6R,S)-folinic acid; ligand present: no
Summary of the method: (§1)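 HEK293T cells were transfected with library plasmids carrying ribozyme switches linked to an mCherry reporter, or an eGFP reporter in some ligand experiments, at 4 µg per well of a 6-well plate, with any ligand added 1 h beforehand. After 72 h, total RNA was extracted with EDTA, reverse-transcribed, amplified, barcoded and sequenced. RNA level was defined as RNA reads over DNA reads, normalized to a spiked-in non-cleaving sequence or to the top-ranked sequences. That value was multiplied by 100 and converted to log10, the top set was 25 sequences, and only sequences with ≥100 DNA reads were retained.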

(6R,S)-folinic acid [2] = variants of: B1; test: normalized RNA/DNA level with ligand (relative to sTRSVctl = 100) (log10 (% of sTRSVctl)); HEK293T overexpressing SLC46A1; ligand concentration (+) RNA-Seq: 6 mM; higher = less ribozyme self-cleavage, higher mRNA level; settings: with (6R,S)-folinic acid; ligand present: yes
Summary of the method: as §1

Row | Variant | normalized RNA/DNA level without ligand (log10) ((6R,S)-folinic acid [1]) | normalized RNA/DNA level with ligand (log10) ((6R,S)-folinic acid [2])
1 | CAAUUG | 2.014 ± 0.0049 | 2.06 ± 0.023
2 | CAAUUU | 1.995 ± 0.0068 | 2 ± 0.032
3 | CAAGCG | 2.057 ± 0.015 | 2.062 ± 0.0093
4 | CAAGCC | 2.099 ± 0.01 | 2.03 ± 0.046
5 | GAAGUC | 2.05 ± 0.021 | 2.04 ± 0.026
6 | AAACGC | 1.996 ± 0.006 | 2.01 ± 0.032
7 | UAAGUA | 1.896 ± 0.0077 | 1.98 ± 0.034
8 | AAAGGU | 1.939 ± 0.0029 | 2.01 ± 0.032
9 | CAACUC | 2.06 ± 0.015 | 2.06 ± 0.024
10 | CAACUG | 2.029 ± 0.015 | 2.021 ± 0.016
11 | CAACUA | 2.01 ± 0.023 | 2.01 ± 0.035
12 | CAACUU | 2.039 ± 0.012 | 2.03 ± 0.052
13 | CAAGGC | 1.993 ± 0.019 | 1.99 ± 0.035
14 | CAAGGU | 1.976 ± 0.0082 | 1.97 ± 0.024
15 | GAAUCC | 2.023 ± 0.0051 | 2.02 ± 0.061
16 | GAAUCU | 2.011 ± 0.0071 | 2.04 ± 0.037
17 | GAACCG | 2.018 ± 0.017 | 2.03 ± 0.038
18 | GAACCC | 2.02 ± 0.018 | 2.017 ± 0.0044
19 | CAAGAC | 2.026 ± 0.0013 | 2.03 ± 0.038
20 | CAAGAU | 1.97 ± 0.009 | 2.01 ± 0.025
21 | GAAUGU | 1.988 ± 0.015 | 2.01 ± 0.035
22 | GAAUGC | 1.943 ± 0.012 | 2 ± 0.036
23 | UAAUUA | 1.991 ± 0.0035 | 2.01 ± 0.048
24 | UAAUUC | 2.01 ± 0.027 | 2.02 ± 0.031

Row | Variant | normalized RNA/DNA level without ligand (log10) ((6R,S)-folinic acid [1]) | normalized RNA/DNA level with ligand (log10) ((6R,S)-folinic acid [2])
25 | UAAUUU | 1.979 ± 0.0057 | 2.01 ± 0.032
26 | GACAAG | 1.9442 ± 0.00015 | 2.008 ± 0.02
27 | GACAAU | 1.967 ± 0.012 | 1.99 ± 0.045
28 | CAACGU | 2.024 ± 0.0058 | 2.037 ± 0.019
29 | CAACGG | 1.9202 ± 0.00028 | 1.976 ± 0.0039
30 | CAACGC | 2.025 ± 0.011 | 2.02 ± 0.038
31 | AAACUC | 2.0456 ± 0.00044 | 2.03 ± 0.049
32 | AAACUU | 2.007 ± 0.0031 | 2.02 ± 0.024
33 | AAACUA | 1.9744 ± 0.0006 | 2 ± 0.038
34 | CAAUCU | 2.045 ± 0.0088 | 2.05 ± 0.028
35 | CAAUCA | 2.001 ± 0.0045 | 2.02 ± 0.033
36 | CAAUCG | 2.024 ± 0.012 | 2.02 ± 0.0061
37 | CAAUCC | 2.023 ± 0.0031 | 2.02 ± 0.049
38 | GAACGU | 1.988 ± 0.0095 | 2 ± 0.027
39 | UACAAC | 2.0034 ± 0.0014 | 2.02 ± 0.034
40 | GACAUC | 2.05 ± 0.034 | 2.04 ± 0.082
41 | GACAUG | 1.925 ± 0.0021 | 1.994 ± 0.009
42 | UACACU | 2.017 ± 0.0061 | 2.03 ± 0.037
43 | UACACC | 2.025 ± 0.011 | 1.99 ± 0.048
44 | UAACCU | 2.01 ± 0.024 | 2.018 ± 0.0082
45 | UAACCC | 1.991 ± 0.011 | 2 ± 0.035
46 | UAACGU | 1.95 ± 0.028 | 2.003 ± 0.013
47 | GAACUA | 1.9884 ± 0.0016 | 2 ± 0.055
48 | GAACUG | 1.971 ± 0.0088 | 1.99 ± 0.028

Row | Variant | normalized RNA/DNA level without ligand (log10) ((6R,S)-folinic acid [1]) | normalized RNA/DNA level with ligand (log10) ((6R,S)-folinic acid [2])
49 | GAACUC | 2.044 ± 0.0052 | 2.028 ± 0.012
50 | GAACUU | 2.002 ± 0.013 | 1.98 ± 0.028
51 | UAAUCA | 1.945 ± 0.013 | 1.97 ± 0.04
52 | UAAUCU | 2.021 ± 0.012 | 2.046 ± 0.0022
53 | UAAUCG | 1.795 ± 0.012 | 1.988 ± 0.016
54 | UAAUCC | 2.001 ± 0.0044 | 2.03 ± 0.03
55 | UAAUAC | 1.941 ± 0.0049 | 1.96 ± 0.021
56 | UAAUAA | 1.931 ± 0.0048 | 1.985 ± 0.013
57 | AAAUCA | 1.996 ± 0.0046 | 2.02 ± 0.047
58 | AAAUCU | 2.0432 ± 0.0014 | 2.03 ± 0.048
59 | AAACCC | 2.048 ± 0.0094 | 2.032 ± 0.0089
60 | AAACCU | 2.0232 ± 0.0015 | 2.03 ± 0.031
61 | AAACCG | 1.97 ± 0.0043 | 2 ± 0.029
62 | CAACCC | 2.073 ± 0.0092 | 2.03 ± 0.079
63 | CAACCU | 2.051 ± 0.012 | 2.05 ± 0.035
64 | CAACCG | 2.0386 ± 0.00089 | 2.04 ± 0.02
65 | UAACUC | 2.046 ± 0.0055 | 2.03 ± 0.045
66 | GAAUAU | 2.038 ± 0.015 | 2.02 ± 0.051
67 | GAAUAG | 1.9357 ± 0.0015 | 2.01 ± 0.042
68 | AAAGCU | 2.003 ± 0.018 | 2.013 ± 0.013
69 | AAAGCC | 2.03 ± 0.013 | 2.05 ± 0.028
70 | GACACU | 2.032 ± 0.015 | 2.046 ± 0.018
71 | GACACC | 2.026 ± 0.0065 | 1.98 ± 0.038
72 | GACACG | 1.971 ± 0.019 | 1.98 ± 0.034

Row | Variant | normalized RNA/DNA level without ligand (log10) ((6R,S)-folinic acid [1]) | normalized RNA/DNA level with ligand (log10) ((6R,S)-folinic acid [2])
73 | AAAUGU | 1.9431 ± 0.0016 | 1.99 ± 0.028
74 | GAAGCC | 2.022 ± 0.0083 | 2.03 ± 0.047
75 | CACACG | 2.0281 ± 0.00028 | 2.04 ± 0.036
76 | CACACC | 2.061 ± 0.0083 | 2 ± 0.073
77 | UAAGCC | 2 ± 0.0023 | 2.03 ± 0.038
78 | UAAGGU | 1.844 ± 0.0031 | 1.967 ± 0.018
79 | UAAGGC | 1.98 ± 0.023 | 2.01 ± 0.043
80 | CAAUGG | 1.94 ± 0.0094 | 1.983 ± 0.0083
81 | CAAUGU | 1.981 ± 0.0089 | 1.98 ± 0.044
82 | CAAUGC | 2.03 ± 0.027 | 2.023 ± 0.02
83 | CACAUU | 2.02 ± 0.026 | 2.02 ± 0.059
84 | CACAUG | 2.02 ± 0.01 | 2.018 ± 0.017
85 | CACAUC | 2.035 ± 0.0021 | 2.04 ± 0.025
86 | AACACC | 2.046 ± 0.015 | 2.05 ± 0.086
87 | AACACU | 2 ± 0.032 | 2 ± 0.043
88 | AACACA | 1.99 ± 0.011 | 2.01 ± 0.037
89 | GAAGGG | 1.87 ± 0.00046 | 2.03 ± 0.043
90 | GAAGGA | 1.952 ± 0.0097 | 2.009 ± 0.014
91 | GAAGGU | 1.974 ± 0.0097 | 2.02 ± 0.043
92 | AAAGUA | 1.937 ± 0.014 | 2 ± 0.037
93 | AAAGUU | 1.972 ± 0.0027 | 2.01 ± 0.016
94 | CAAGUA | 1.9916 ± 0.0019 | 2.03 ± 0.045
95 | CAAGUG | 2 ± 0.028 | 1.98 ± 0.046
96 | CAAGUC | 2.04 ± 0.021 | 2.02 ± 0.037

Row | Variant | normalized RNA/DNA level without ligand (log10) ((6R,S)-folinic acid [1]) | normalized RNA/DNA level with ligand (log10) ((6R,S)-folinic acid [2])
97 | GACAGC | 2.002 ± 0.0097 | 2.03 ± 0.046
98 | GACAGU | 1.99 ± 0.025 | 2 ± 0.053
99 | AACAGC | 2.0178 ± 0.00095 | 2.02 ± 0.022
100 | CAAUAU | 1.95 ± 0.025 | 2 ± 0.033
101 | CAAUAC | 1.984 ± 0.017 | 1.97 ± 0.038
102 | AAAUUA | 1.97 ± 0.012 | 1.99 ± 0.03
103 | CACAGU | 1.999 ± 0.017 | 2 ± 0.077
104 | CACAGC | 1.978 ± 0.0044 | 1.96 ± 0.021
105 | CACAGA | 2.03 ± 0.015 | 2.01 ± 0.022
106 | CACAGG | 1.95 ± 0.026 | 2 ± 0.048
107 | UACAGC | 1.991 ± 0.0074 | 2.02 ± 0.05
108 | GAAUUU | 2.029 ± 0.01 | 2.01 ± 0.022
109 | GAAUUC | 2.01 ± 0.0081 | 2.02 ± 0.024
110 | CACAAC | 2.004 ± 0.016 | 1.99 ± 0.05
111 | CACAAU | 1.954 ± 0.018 | 1.99 ± 0.057
112 | CACAAG | 1.961 ± 0.006 | 2.013 ± 0.02
113 | AACAUU | 2.03 ± 0.019 | 2.02 ± 0.022
114 | UAAGAU | 1.9446 ± 0.0012 | 2.01 ± 0.024
115 | UAAGAC | 1.984 ± 0.00031 | 2.01 ± 0.034
116 | UACAUC | 2.0657 ± 0.0019 | 2.04 ± 0.032
